T1: monkey TIM-3 on CHOK1 stable cell line (CHOK1-cTIM-3) (monkey)
T1 chain: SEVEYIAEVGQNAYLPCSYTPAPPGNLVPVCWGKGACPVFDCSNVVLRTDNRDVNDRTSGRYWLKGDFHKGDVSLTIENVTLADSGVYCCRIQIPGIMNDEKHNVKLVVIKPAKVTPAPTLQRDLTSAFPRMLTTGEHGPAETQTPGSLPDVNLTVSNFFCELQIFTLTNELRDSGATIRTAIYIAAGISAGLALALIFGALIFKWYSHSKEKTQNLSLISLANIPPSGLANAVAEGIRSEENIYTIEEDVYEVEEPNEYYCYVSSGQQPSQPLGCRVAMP

T2: murine TIM-3 extracellular domain protein with hFc tag (mTIM-3-hFc) (mouse, UniProt Q8VIM0 29-191)
T2 construct: also called mouse TIM-3 extracellular domain protein; not shown: human IgG Fc fragment (hFc) of the pCpC vector
T2 chain: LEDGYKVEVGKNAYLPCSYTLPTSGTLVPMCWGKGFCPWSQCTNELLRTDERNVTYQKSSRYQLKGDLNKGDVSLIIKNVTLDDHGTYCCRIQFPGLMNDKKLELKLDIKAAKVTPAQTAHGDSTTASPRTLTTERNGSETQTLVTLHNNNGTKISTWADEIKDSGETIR

T3: monkey TIM-3 extracellular domain protein with hFc tag (cTIM-3-hFc) (monkey)
T3 construct: not shown: human IgG Fc fragment (hFc) of the pCpC vector
T3 chain: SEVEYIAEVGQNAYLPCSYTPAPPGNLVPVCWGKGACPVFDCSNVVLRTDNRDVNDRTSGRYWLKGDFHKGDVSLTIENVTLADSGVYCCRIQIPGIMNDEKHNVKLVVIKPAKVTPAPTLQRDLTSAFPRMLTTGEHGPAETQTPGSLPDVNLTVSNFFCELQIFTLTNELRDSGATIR

T4: human TIM-3 extracellular domain protein with hFc tag (hTIM-3-hFc) (human, UniProt Q8TDQ0 22-200)
T4 construct: not shown: human IgG Fc fragment (hFc) of the pCpC vector
T4 sequence: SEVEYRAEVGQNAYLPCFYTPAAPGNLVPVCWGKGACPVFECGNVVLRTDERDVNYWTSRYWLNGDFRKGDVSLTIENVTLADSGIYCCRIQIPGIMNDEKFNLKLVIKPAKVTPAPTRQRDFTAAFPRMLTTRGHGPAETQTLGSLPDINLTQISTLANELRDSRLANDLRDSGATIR

T5: human TIM-3 protein with hFc tag (hTIM-3-hFc protein) (human, UniProt Q8TDQ0 22-200)
T5 construct: also called immunogen 1; human TIM-3 extracellular domain protein; not shown: human IgG Fc fragment (hFc) of the pCpC vector
T5 sequence: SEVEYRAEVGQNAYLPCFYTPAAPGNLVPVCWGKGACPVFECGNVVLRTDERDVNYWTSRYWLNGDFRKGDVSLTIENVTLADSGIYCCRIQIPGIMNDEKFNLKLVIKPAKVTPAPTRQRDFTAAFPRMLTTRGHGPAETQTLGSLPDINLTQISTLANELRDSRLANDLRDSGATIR

T6: murine TIM-3 protein with hFc tag (mTIM-3-hFc protein) (mouse; human, UniProt Q8VIM0 29-191)
T6 construct: Made in HEK293 cells; also called mouse TIM-3 extracellular domain protein; not shown: human IgG Fc fragment (hFc) of the pCpC vector
T6 chain: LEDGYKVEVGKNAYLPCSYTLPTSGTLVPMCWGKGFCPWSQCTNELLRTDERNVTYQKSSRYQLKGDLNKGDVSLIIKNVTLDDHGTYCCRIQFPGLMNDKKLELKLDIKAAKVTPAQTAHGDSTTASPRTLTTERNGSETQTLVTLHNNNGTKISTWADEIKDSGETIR

B1: 57F4E5 fully human TIM-3 antibody (human IgG4, kappa) (antibody, V domains shown)
VH: EVQLVESGGGLVQPGGSLRLSCAASGFTFSSYWMSWVRQAPGKGLEWVANIKQDGSEKYYVDSVKGRFTISRDSAKNSLYLQMNSLRAEDTAMYFCARDSNFFDYWGQGTLVTVSS
VL: ETVMTQSPATLSVSPGERATLSCRASQSVSSNLAWYQRKPGQAPRLLIYFSSTRATGIPARFSGSGSGTEFTLTISSLQSEDFAVYYCQQYNNWPLTFGGGTKVEIK
B2: 134H3G6 fully human TIM-3 antibody (human IgG4, kappa) (antibody, V domains shown)
VH: EVQLVESGGGLVQPGGSLRLSCAASGFTFSNSWMTWVRQAPGKGLEWVANIKQAGTEKYYVDSVKGRFTISRDNAKNSLYLQMNSLRAEDTAVYYCNSGSNYFDYWGQGTLVTVSS
VL: EIVMTQSPATLSVSPGERATLSCRARQNFYSNLAWYQQKPGQAPRLLIYGASTRATGIPARFSGSGSGTEFTLTISSLQSEDFAVYYCQQYNNWPLTFGGGTKVEIK
B3: 215A8F2 fully human TIM-3 antibody (human IgG4, kappa) (antibody, V domains shown)
VH: QVQLQQWGAGLLKPSETLSLTCTVYGGSFSGYYWNWIRQPPGKGLEWLGEINHSGSTNYNPSLKRRVTISVDTSKNQFSLKLSSVTAADTAVYYCARVYYYGPFDFWGQGTLVTVSS
VL: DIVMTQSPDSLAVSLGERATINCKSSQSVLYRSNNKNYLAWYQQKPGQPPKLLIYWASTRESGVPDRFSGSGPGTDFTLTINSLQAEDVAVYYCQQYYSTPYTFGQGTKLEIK
B4: 18D2H2 (TIM-3 antibody purified from hybridoma, chimeric antibody of Example 2) (antibody, V domains shown)
VH: EVQLVESGGDLVQPGGSLRLSCAASGFTFSTYWMTWVRQAPGRGLEWVANIKQDGSAKYYVDSVKGRFTLSRDDAKNSLYLQMNSLRAEDTAVYYCARGSNWFDYWGQGTLVTVSS
VL: ETVMTQSPATLSVSPGERATLSCRANQNVYSNLAWYQQKPGQAPRLLIYDASTRATGFPARFSGSGSGTEFTLTISSLQSEDFAVYYCQQYNNWPLTFGGGTKVEIK
notes: From hybridoma of Harbour H2L2 transgenic mice: human variable regions, rat constant regions
B5: 34B6D8 (TIM-3 antibody purified from hybridoma, chimeric antibody of Example 2) (antibody, V domains shown)
VH: EVQLVESGGGLVQPGGSLRLSCAASGFTFSTYWMTWVRQAPGKRLEWVANIKQGGGDKYYVDSVKGRFTISTDNAKNSLYLQMNSLRAEDTAVYYCARGSNWFDPWGQGTLVTVSS
VL: EIVMTQSPATLSMSPGERATLSCRASQSVYDNLAWYQQKPGQAPRLLIYGASTRATGIPARFSGSGSGTEFTLTISSLQSEDFALYYCQQYTHWPITFGQGTRLEIK
notes: as for B4
B6: 39E5H1 (TIM-3 antibody purified from hybridoma, chimeric antibody of Example 2) (antibody, V domains shown)
VH: EVQLVESGGGLVQPGGSLRLSCAASGFTFSSYWMSWVRQAPGKGLEWVANIKRGGSERYYVDSVKGRFTISGDNAKNSVYLQMNSLRAEDTAVYYCARGSNWFDPWGQGTLVTVSS
VL: ETVMTQSPAILSVSPGERATLSCRASQSVYSNLAWYQQKLGQAPRLLIYDASTRATGIPARFSGSGSGTEFTLTISSLQSEDFAVYYCQQYNNWPITFGQGTRLEIK
notes: as for B4
B7: 57F4E5 (TIM-3 antibody purified from hybridoma, chimeric antibody of Example 2) (antibody, V domains shown)
VH: EVQLVESGGGLVQPGGSLRLSCAASGFTFSSYWMSWVRQAPGKGLEWVANIKQDGSEKYYVDSVKGRFTISRDSAKNSLYLQMNSLRAEDTAMYFCARDSNFFDYWGQGTLVTVSS
VL: ETVMTQSPATLSVSPGERATLSCRASQSVSSNLAWYQRKPGQAPRLLIYFSSTRATGIPARFSGSGSGTEFTLTISSLQSEDFAVYYCQQYNNWPLTFGGGTKVEIK
notes: as for B4
B8: 134H3G6 (TIM-3 antibody purified from hybridoma, chimeric antibody of Example 2) (antibody, V domains shown)
VH: EVQLVESGGGLVQPGGSLRLSCAASGFTFSNSWMTWVRQAPGKGLEWVANIKQAGTEKYYVDSVKGRFTISRDNAKNSLYLQMNSLRAEDTAVYYCNSGSNYFDYWGQGTLVTVSS
VL: EIVMTQSPATLSVSPGERATLSCRARQNFYSNLAWYQQKPGQAPRLLIYGASTRATGIPARFSGSGSGTEFTLTISSLQSEDFAVYYCQQYNNWPLTFGGGTKVEIK
notes: as for B4
B9: 215A8F2 (TIM-3 antibody purified from hybridoma, chimeric antibody of Example 2) (antibody, V domains shown)
VH: QVQLQQWGAGLLKPSETLSLTCTVYGGSFSGYYWNWIRQPPGKGLEWLGEINHSGSTNYNPSLKRRVTISVDTSKNQFSLKLSSVTAADTAVYYCARVYYYGPFDFWGQGTLVTVSS
VL: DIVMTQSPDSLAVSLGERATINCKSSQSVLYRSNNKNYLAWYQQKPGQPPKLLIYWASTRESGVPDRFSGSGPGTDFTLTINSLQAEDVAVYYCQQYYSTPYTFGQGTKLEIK
notes: as for B4
B10: 7A4F10 (TIM-3 antibody purified from hybridoma, chimeric antibody of Example 2) (antibody, V domains shown)
VH: EVQLLESGGGLVQPGGSLRLSCAASGFTFRTHLISWVRQAPGKGLEWVAAITGSGGSTYYADSVKGRFIISRDNSKNTLFLQMNSLRAEDTAVYYCAKDGGSGSYDDFWGQGTLVTVSS
VL: ETVLTQSPVTLSLSPGERATLSCRASQSVGSYLAWYQQKPGQAPRLLIYDASNRATGIPARFSGSGSGTDFTLTISSLEPEDFAVYYCQQRSNWPPTFGQGTKVEIK
notes: as for B4

Columns and labels:
[1] = target: T1, monkey TIM-3 on CHOK1 stable cell line …; test: FACS, CHOK1-cTIM-3 cells, 0.064 nM antibody
[2] = target: T2, murine TIM-3 extracellular domain …; test: ELISA, coated mouse TIM-3 ECD protein, 0.6667 nM antibody
[3] = target: T3, monkey TIM-3 extracellular domain …; test: ELISA, coated monkey TIM-3 ECD protein, 6.6667 nM antibody
[4] = target: T1, monkey TIM-3 on CHOK1 stable cell line …; test: FACS, CHOK1-cTIM-3 cells, 1.6 nM antibody
[5] = target: T3, monkey TIM-3 extracellular domain …; test: ELISA, coated monkey TIM-3 ECD protein, 0.0067 nM antibody
[6] = target: T4, human TIM-3 extracellular domain …; test: ELISA, coated human TIM-3 ECD protein, 0.0001 nM antibody
[7] = target: T4, human TIM-3 extracellular domain …; test: ELISA, coated human TIM-3 ECD protein, 6.6667 nM antibody
[8] = target: T2, murine TIM-3 extracellular domain …; test: ELISA, coated mouse TIM-3 ECD protein, 0 nM antibody
[9] = target: T5, human TIM-3 protein with hFc tag …; test: ELISA, coated hTIM-3-hFc; antibody 0.0667 nM
From the text: (§1) The amino acid sequence 22-200 of the extracellular domain of the human TIM-3 protein described in the step of Example 1 (as shown in SEQ ID NO. 71 in the sequence listing) was cloned into a pCpC vector having a human IgG Fc fragment (hFc), and transfected into HEK293 cells. The cell culture medium was collected, and purified to obtain the human TIM-3 protein with hFc tag (herein referred to as hTIM-3-hFc protein). The amino acid sequence 22-201 of the extracellular domain of the monkey TIM-3 protein (as shown in SEQ ID NO. 72 in the sequence listing) was cloned into a pCpC vector having a human IgG Fc fragment (hFc), and transfected into HEK293 cells. The cell culture medium was collected, and purified to obtain the monkey TIM-3 protein with hFc tag (herein referred to as cTIM-3-hFc protein). […] The cell culture medium was collected, and purified to obtain the murine TIM-3 protein with hFc tag (herein referred to as mTIM-3-hFc protein). Purified human, monkey, and mouse TIM-3 extracellular domain proteins (hTIM-3-hFc, cTIM-3-hFc, and mTIM-3-hFc) were diluted with PBS to a final concentration of 1.0 μg/ml and then added to a 96-well ELISA plate with 100 μl per well. The plate was sealed with plastic film and incubated overnight at 4° C. The plate was washed 4 times with the plate washing solution (PBS+0.01% Tween20) on the next day, and added with the blocking solution (PBS+0.01% Tween20+1% BSA) and sealed at room temperature for 1-2 hours. The blocking solution was poured out. 50-100 μl of the antibody sample to be tested was added to each well. The plate was incubated at 37° C. for 1-2 hours, and washed 2-3 times with plate washing solution (PBS+0. 01% Tween20). HRP (horseradish peroxidase) labeled secondary antibody was added. The plate was incubated at 37° C. for 1-2 hours, and washed 2-3 times with plate washing solution (PBS+0. 01% Tween20). […] of TMB substrate was added to each well. After incubated at room temperature for 15-30 minutes, the plate was added with […] stop solution (1.0N HCl) to each well. An ELISA plate reader (TiterMax 384plus, Molecular Device) was used to read the A450 nm value.

[10] = target: T6, murine TIM-3 protein with hFc tag …; test: ELISA, coated mTIM-3-hFc; antibody 0.6667 nM
From the text: as §1

[11] = target: T6, murine TIM-3 protein with hFc tag …; test: ELISA, coated mTIM-3-hFc; antibody 0.0667 nM
From the text: as §1

Binder | Mean fluorescence intensity [1] | OD450 [2] | OD450 [3] | Mean fluorescence intensity [4] | OD450 [5] | OD450 [6] | OD450 [7] | OD450 [8] | OD450 [9] | OD450 [10] | OD450 [11]
B1 | 30.6 | 0.28 | 3.29 | 207 | 0.32 | 0.08 | 2.91 | 0.24 | – | – | –
B2 | 46.4 | 0.23 | 3.19 | 326 | 0.3 | 0.1 | 2.81 | 0.22 | – | – | –
B3 | 29.9 | 0.24 | 3.28 | 252 | 0.33 | 0.08 | 2.86 | 0.21 | – | – | –
B4 | – | – | – | – | – | – | – | – | 0.35 | 0.66 | 0.67
B5 | – | – | – | – | – | – | – | – | 1.62 | 0.65 | 0.68
B6 | – | – | – | – | – | – | – | – | 1.78 | 0.66 | 0.68
B7 | – | – | – | – | – | – | – | – | 2.83 | 0.64 | 0.64
B8 | – | – | – | – | – | – | – | – | 0.2 | 0.66 | 0.65
B9 | – | – | – | – | – | – | – | – | 1 | 0.65 | 0.67
B10 | – | – | – | – | – | – | – | – | 0.21 | 0.67 | 0.62

Reference: patent publication US20220033501A1 (SHANGHAI PHARMAEXPLORER, published 2022)
